Our source for the activity and Kd values is patent US20190309274, “IL-10 RECEPTOR ALPHA HOMING ENDONUCLEASE VARIANTS, COMPOSITIONS, AND METHODS OF USE” (bluebird bio, Inc., published 2019).

Numbering of substitutions follows the chain as printed.

Series [1] addresses T1, IL-10Rα.G7.A3 I-OnuI homing endonuclease variant (Artificial (Ophiostoma novo-ulmi I-OnuI …)).
T1 chain: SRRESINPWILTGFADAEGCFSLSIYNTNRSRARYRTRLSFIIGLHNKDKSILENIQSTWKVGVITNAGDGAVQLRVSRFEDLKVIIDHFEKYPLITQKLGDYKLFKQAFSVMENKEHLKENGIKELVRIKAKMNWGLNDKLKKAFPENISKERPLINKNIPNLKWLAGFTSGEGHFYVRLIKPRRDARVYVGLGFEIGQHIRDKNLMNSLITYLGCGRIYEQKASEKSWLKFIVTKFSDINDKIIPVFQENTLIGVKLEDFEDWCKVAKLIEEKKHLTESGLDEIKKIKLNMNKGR
Kind of series: cell_activity; chromosomal mCherry reporter in HEK 293T; variant isolated by display sorting under 50 pM affinity conditions. On the procedure:
The activity of reprogrammed I-OnuI HEs that target exon 2 of the IL-10Rα gene was measured using a chromosomally integrated fluorescent reporter system (Certo et. al., 2011). Fully reprogrammed I-OnuI HEs that bind and cleave the IL-10Rα target sequence were cloned into mammalian expression plasmids and then individually transfected into a HEK 293T […] cell line that was reprogrammed to contain the IL-10Rα target sequence upstream of an out-of-frame gene encoding the fluorescent mCherry protein. Cleavage of the embedded target site by the HE and the subsequent accumulation of small insertions or deletions, caused by DNA repair via the non-homologous end joining (NHEJ) pathway, results in approximately one out of three repaired loci placing the fluorescent reporter gene back “in-frame”. mCherry fluorescence is therefore a readout of endonuclease activity at the chromosomally embedded target sequence. […] FIG. 3.
A secondary I-OnuI variant library was generated by performing random mutagenesis on one of the reprogrammed I-OnuI HEs that targets the IL-10Rα target site, identified in the initial reporter screen (IL-10Rα.G7, SEQ ID NO: 6). In addition, display-based flow sorting was performed under more stringent affinity conditions (50 pM) to isolate variants with improved binding characteristics. FIG. 3. […]

Series [2] has as its target T2, IL-10Rα.G7.A3.G7 I-OnuI homing endonuclease variant (Artificial (Ophiostoma novo-ulmi I-OnuI …)).
T2 chain: T1 chain with N55S, H176Y
Kind of series: flow; yeast surface display substrate titration; stated as sub-nanomolar affinity, exact value only in figure. To be noted: tags: yeast surface display.

As a reminder, the Kd is the free concentration of one partner at which half of the binding sites on the other are occupied at equilibrium, for simple one-to-one binding. Low readings indicate tighter binding, high ones weaker binding.

B1: IL-10Rα exon 2 HE target site (dsDNA)
DNA 1: GGTGGAAAAATTCTGCTTCAAA
DNA 2: TTTGAAGCAGAATTTTTCCACC
Consider B1, for which the activity in series [1] is approximately 2 fold vs IL-10Rα.G7. Further, the Kd in series [2] is less than 1 nM.
